Laboratory results taken from patent US20200155643.

Target: T1, Recombinant human protein C inhibitor (PCI, SERPINA5), P05154
T1 chain: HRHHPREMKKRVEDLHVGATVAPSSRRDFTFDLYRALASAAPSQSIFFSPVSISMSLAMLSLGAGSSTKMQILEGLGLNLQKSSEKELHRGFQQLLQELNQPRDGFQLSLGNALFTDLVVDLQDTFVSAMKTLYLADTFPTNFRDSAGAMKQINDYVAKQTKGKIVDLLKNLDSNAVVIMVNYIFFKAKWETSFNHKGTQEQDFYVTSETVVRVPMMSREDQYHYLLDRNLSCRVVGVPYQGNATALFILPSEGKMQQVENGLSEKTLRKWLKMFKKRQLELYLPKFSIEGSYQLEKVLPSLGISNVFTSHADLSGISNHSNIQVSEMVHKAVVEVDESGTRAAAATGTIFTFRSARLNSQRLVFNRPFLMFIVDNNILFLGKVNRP

B1: Recombinant human matriptase (protein)
chain: GSDEKDCDCGLRSFTRQARVVGGTDADEGEWPWQVSLHALGQGHICGASLISPNWLVSAAHCYIDDRGFRYSDPTQWTAFLGLHDQSQRSAPGVQERRLKRIISHPFFNDFTFDYDIALLELEKPAEYSSMVRPICLPDASHVFPAGKAIWVTGWGHTQYGGTGALILQKGEIRVINQTTCENLLPQQITPRMMCVGFLSGGVDSCQGDSGGPLSSVEADGRIFQAGVVSWGDGCAQRNKPGVYTRLPLFRDWIKENTGV
cleavage of PCI (anti-PCI immunoblot): resulted in the appearance of cleaved forms of PCI
